Biological target: the molecule itself
Test: cryo-EM structure

B1: E. coli stringent starvation protein A (SspA), wild type (natural protein)
chain: MAVAANKRSVMTLFSGPTDIYSHQVRIVLAEKGVSFEIEHVEKDNPPQDLIDLNPNQSVPTLVDRELTLWESRIIMEYLDERFPHPPLMPVYPVARGESRLYMHRIEKDWYTLMNTIINGSASEADAARKQLREELLAIAPVFGQKPYFLSDEFSLVDCYLAPLLWRLPQLGIEFSGPGAKELKGYMTRVFERDSFLASLTEAEREMRLGRS
stoichiometry N: 2

From article PMC7515715 (Nucleic Acids Research, 2020)
